For 94 variants, protein stability index results are on record in the supplement of paper PMC10567573.

Sequences and labels used below:
B1: GOLPH3 (parent)
chain: FAPLLDEQYDLATKRVRQLLDLDP
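Also: lentivirally expressed fusions sorted by FACS into six bins by GFP to DsRed ratio, PSI derived from sequencing read proportions per bin multiplied by bin number.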

Variants of B1 are the subject of this series. In words: protein stability index of a GFP-peptide fusion (GPS, HEK-293T) (PSI 1-6); higher = more stable. Particulars: c terminus: a fixed tail appended.
For the variant FAGLLDEQYDLATKRVRQLLDLDP, the protein stability index turned out to be 2.59.
Consider FACLLDEQYDLATKRVRQLLDLDP, for which the protein stability index came out at 2.44.
Next, FATLLDEQYDLATKRVRQLLDLDP: 2.88.
Under FAILLDEQYDLATKRVRQLLDLDP stands 1.68.
Under FAFLLDEQYDLATKRVRQLLDLDP stands 1.52.
For the variant FAKLLDEQYDLATKRVRQLLDLDP, the protein stability index was 2.44.
Next, FALLLDEQYDLATKRVRQLLDLDP: 1.6; FAWLLDEQYDLATKRVRQLLDLDP: 2.16.
Under FARLLDEQYDLATKRVRQLLDLDP stands 1.87; under FADLLDEQYDLATKRVRQLLDLDP, 2.79.
Next, FAYLLDEQYDLATKRVRQLLDLDP: 2.28.
In the case of FAELLDEQYDLATKRVRQLLDLDP, the protein stability index stood at 3.18.
Under FLPLLDEQYDLATKRVRQLLDLDP stands 2.2.
For FIPLLDEQYDLATKRVRQLLDLDP, the protein stability index was found to be 1.75.
Next, FQPLLDEQYDLATKRVRQLLDLDP: 3.37; FMPLLDEQYDLATKRVRQLLDLDP: 2.03; FCPLLDEQYDLATKRVRQLLDLDP: 1.85.
Under FSPLLDEQYDLATKRVRQLLDLDP stands 3.46; under FAPLFDEQYDLATKRVRQLLDLDP, 2.6.
FAPLIDEQYDLATKRVRQLLDLDP: the protein stability index is 1.78.
As for FAPLWDEQYDLATKRVRQLLDLDP, the protein stability index is 2.07.
FAPLVDEQYDLATKRVRQLLDLDP: the protein stability index was determined as 2.21.
On to FAPLMDEQYDLATKRVRQLLDLDP, for which the protein stability index came out at 2.38.
As for FAPLRDEQYDLATKRVRQLLDLDP, the protein stability index turned out to be 1.18.
Under FAPLEDEQYDLATKRVRQLLDLDP stands 3.7; under FAPLTDEQYDLATKRVRQLLDLDP, 1.95.
Next, FAPLQDEQYDLATKRVRQLLDLDP: 2.45; FAPLKDEQYDLATKRVRQLLDLDP: 2.39; FAPLCDEQYDLATKRVRQLLDLDP: 1.82.
Regarding FAPLGDEQYDLATKRVRQLLDLDP, the protein stability index worked out at 2.24.
Under FAPLLDHQYDLATKRVRQLLDLDP stands 1.76; under FAPLLDRQYDLATKRVRQLLDLDP, 2.79.
Next, FAPLLDVQYDLATKRVRQLLDLDP: 1.89; FAPLLDTQYDLATKRVRQLLDLDP: 1.86.
As for FAPLLDQQYDLATKRVRQLLDLDP, the protein stability index came to 2.66.
Under FAPLLDLQYDLATKRVRQLLDLDP stands 1.55.
Consider FAPLLDEQYDLATKVVRQLLDLDP, for which the protein stability index turned out to be 2.35.
As to FAPLLDEQYDLATKGVRQLLDLDP, the protein stability index came out at 1.74.
Consider FAPLLDEQYDLATKYVRQLLDLDP, for which the protein stability index was found to be 1.51.
As to FAPLLDEQYDLATKDVRQLLDLDP, the protein stability index was 2.73.
Next, FAPLLDEQYDLATKKVRQLLDLDP: 1.93; FAPLLDEQYDLATKIVRQLLDLDP: 2.01; FAPLLDEQYDLATKAVRQLLDLDP: 2.56.
Next, FAPLLDEQYDLATKHVRQLLDLDP: 2.04.
Under FAPLLDEQPDLATKRVRQLLDLDP stands 2.59.
As to FAPLLDEQQDLATKRVRQLLDLDP, the protein stability index amounted to 2.64.
FAPLLDEQLDLATKRVRQLLDLDP: the protein stability index is 2.15.
Turning to FAPLLDEQKDLATKRVRQLLDLDP, the protein stability index was 2.4.
Consider FAPLLDEQGDLATKRVRQLLDLDP, for which the protein stability index was 2.24.
Next, FAPLLDEQHDLATKRVRQLLDLDP: 2.49; FAPLLDEQCDLATKRVRQLLDLDP: 2.9.
Take FAPLLDEQWDLATKRVRQLLDLDP: the protein stability index is 2.06.
In the case of FAPLLDEQYDLATKRVRQLLDLDC, the protein stability index came out at 2.36.
On to FAPLLDEQYDLATKRVRQLLDLDQ, for which the protein stability index is 2.33.
With FAPLLDEQYDLATKRVRQLLDLDM, the protein stability index is 2.
Next, FAPLLDEQYDLATKRVRQLLDLDN: 2.46; FAPLLDEQYDLATKRVRQLLDLDV: 2.7; FAPLLDEQYDLATKRVRQLLDLDT: 2.3.
As for FAPLLDEQYDLATKRVRQLLDLDG, the protein stability index was 2.28.
Next, FAPLLDEQYDLATKRVRQLLDLDS: 1.48; FAPLLDEQYDLATKRVRQLLDLDD: 1.87; FAPLLDEQYDLATKRWRQLLDLDP: 1.37.
Under FAPLLDEQYDLATKRPRQLLDLDP stands 2.45; under FAPLLDEQYDLATKRHRQLLDLDP, 1.65.
Next, FAPLLDEQYDLATKRTRQLLDLDP: 2.59.
Consider FAPLLDEQYDLATKRQRQLLDLDP, for which the protein stability index stood at 2.4.
Under FAPLLDEQYDLATKRARQLLDLDP stands 2.12.
Take FAPLLDEQYDLATKRRRQLLDLDP: the protein stability index turned out to be 1.82.
Next, FAPLLDEQYDLATKRVRQLLDYDP: 2.29.
Under FAPLLDEQYDLATKRVRQLLDMDP stands 2.58.
With FAPLLDEQYDLATKRVRQLLDFDP, the protein stability index was 2.61.
Under FAPLLDEQYDLATKRVRQLLDDDP stands 2.75.
Regarding FAPLLDEQYDLATKRVRQLLDPDP, the protein stability index was 2.06.
In the case of FAPLLDEQYDLATKRVRQLLDVDP, the protein stability index was found to be 2.2.
Under FAPLLDEQYDLATKRVRQLLDSDP stands 2.29.
Under FAPLLDEQYDLATKRVRQLLDIDP stands 2.45; under FAPLLDEQYDLATKRVRQLLDADP, 3.04.
Under FAPLLDEQYDLATKRVRQLLDHDP stands 2.55; under FAPLLDEQYDLATKRVRQLLDCDP, 1.95.
In the case of FAPLLDEQYDLATKRVRQLLDLPP, the protein stability index is 1.8.
Turning to FAPLLDEQYDLATKRVRQLLDLVP, the protein stability index is 1.6.
Next, FAPLLDEQYDLATKRVRQLLDLQP: 2.11.
Next, FAPLLDEQYDLATKRVRQLLDLWP: 3.32; FAPLLDEQYDLATKRVRQLLDLRP: 2.72.
Under FAPLLFEQYDLATKRVRQLLDLDP stands 1.49.
On to FAPLLNEQYDLATKRVRQLLDLDP, for which the protein stability index was 1.54.
Under FAPLLEEQYDLATKRVRQLLDLDP stands 2.22; under FAPLLIEQYDLATKRVRQLLDLDP, 1.46; under FAPLLCEQYDLATKRVRQLLDLDP, 2.25.
As for FAPLLAEQYDLATKRVRQLLDLDP, the protein stability index was determined as 2.38.
Next, FAPLLDEQYDLATKRVRQLLHLDP: 1.55; FAPLLDEQYDLATKRVRQLLMLDP: 1.85.
Next, FAPLLDEQYDLATKRVRQLLALDP: 1.47; FAPLLDEQYDLATKRVRQLLGLDP: 2.29.
